{"source": "patent US20260183411A1", "about": "“TARGETING SORTILIN” (priority 2024, published 2026)", "binders": {"B1": {"name": "SORT1 peptide 3 conjugate (peptide)", "peptide": "RWCENK([linker-siRNA])R[Nle]FTCRQ[Tle][tBuAla]", "modifications": "disulfide 3-11 (inferred); not fully specified; printed as RWCENKR(Nle)FTCRQ(B13)(F02); reading uncertain", "notes": "also called SORT1 peptide 3 siRNA conjugate"}}, "key": {"rat SORT1 (76-752)-His": {"target": "T1, rat SORT1 (76-752)-His (rat, UniProt O54861 76-752)", "T1 construct": "range 76-752; Amine-coupled to CM5 chip for SPR", "T1 sequence (looked up)": "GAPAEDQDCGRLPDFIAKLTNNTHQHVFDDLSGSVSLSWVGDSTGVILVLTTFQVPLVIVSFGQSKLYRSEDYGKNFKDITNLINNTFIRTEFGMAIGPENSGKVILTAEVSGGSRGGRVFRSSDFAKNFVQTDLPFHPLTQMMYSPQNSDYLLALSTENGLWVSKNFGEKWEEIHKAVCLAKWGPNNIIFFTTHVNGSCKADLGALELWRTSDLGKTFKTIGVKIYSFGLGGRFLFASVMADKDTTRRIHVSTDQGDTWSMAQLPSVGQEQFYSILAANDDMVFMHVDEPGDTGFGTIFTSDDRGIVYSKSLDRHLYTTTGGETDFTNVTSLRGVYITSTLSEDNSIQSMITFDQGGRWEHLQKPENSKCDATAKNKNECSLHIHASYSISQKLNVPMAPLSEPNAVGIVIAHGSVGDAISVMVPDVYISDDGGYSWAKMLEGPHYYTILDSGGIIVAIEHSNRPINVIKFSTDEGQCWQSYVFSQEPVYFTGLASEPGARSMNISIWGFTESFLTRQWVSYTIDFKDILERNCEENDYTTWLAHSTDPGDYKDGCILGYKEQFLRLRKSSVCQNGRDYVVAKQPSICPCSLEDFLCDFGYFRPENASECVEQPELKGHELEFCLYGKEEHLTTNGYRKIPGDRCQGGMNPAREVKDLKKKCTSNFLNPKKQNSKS", "assay": "SPR (Biacore 8K), SORT1 on CM5 chip, siRNA-peptide conjugate as analyte, 1:1 model", "protocol": "(§1) SPR analysis was performed on Series S CM5 chips (Cytiva) using a Biacore 8K instrument (Cytiva). Sensorgrams were double-referenced by subtracting the response on both a reference flow cell and a blank sample. Human SORT1 (78-755)-His (Acrobiosystems), human SORT1 (78-755)-His(GenScript), mouse SORT1 (76-753)-His (R&D Systems), rat SORT1 (76-752)-His (GenScript), and cyno SORT1 (76-753)-His (GenScript) were diluted to 20-60 μg/mL in 10 mM sodium acetate pH 4.5 buffer and immobilized onto Series S CM5 chips using amine coupling at a flow rate of 10 μL/min for 45-100 s.\n(§2) Ten start-up cycles and a blank cycle preceded each analysis run. The runs were performed by sequential injections of analyte (0-20 nM, 3-fold serial dilutions) with a 90 s association and 900 s dissociation at a flow rate of 30 μL/min, followed by two regeneration cycles with 2 M MgCl2 for 90 s at a flow rate of 10 μL/min. […] Five start-up cycles and a blank cycle preceded each analysis run. The runs were performed by sequential injections of analyte (0-25 nM) with a 150 seconds (s) association and 300 s dissociation at a flow rate of 30 μL/min, followed by a regeneration with 2 M MgCl₂ for 200 s at a flow rate of 10 μL/min. The kinetic rate constants (kₐ and kd) and the equilibrium binding constant (Kd) were calculated using a 1:1 kinetic binding model on the Biacore Insight Evaluation Software (Cytiva).\n(§3) SPR analysis was performed on Series S CM5 chips (Cytiva) using a Biacore 8K instrument (Cytiva). Sensorgrams were double-referenced by subtracting the response on both a reference flow cell and a blank sample. The SPR analysis was conducted using four different SORT1 species: Human SORT1, Mouse SORT1, Rat SORT1, and Cyno SORT1. The samples were prepared according to the general procedure described above herein. The kinetic rate constants (ka and […]) and the equilibrium binding constant (Kd) were calculated using a 1:1 kinetic binding model on the Biacore Insight Evaluation Software (Cytiva)."}, "Human SORT1 (78-755)-His": {"target": "T2, Human SORT1 (78-755)-His (human, UniProt Q99523 78-755)", "T2 construct": "range 78-755; Amine-coupled to CM5 chip for SPR; Two suppliers are named (Acrobiosystems, GenScript)", "T2 sequence (looked up)": "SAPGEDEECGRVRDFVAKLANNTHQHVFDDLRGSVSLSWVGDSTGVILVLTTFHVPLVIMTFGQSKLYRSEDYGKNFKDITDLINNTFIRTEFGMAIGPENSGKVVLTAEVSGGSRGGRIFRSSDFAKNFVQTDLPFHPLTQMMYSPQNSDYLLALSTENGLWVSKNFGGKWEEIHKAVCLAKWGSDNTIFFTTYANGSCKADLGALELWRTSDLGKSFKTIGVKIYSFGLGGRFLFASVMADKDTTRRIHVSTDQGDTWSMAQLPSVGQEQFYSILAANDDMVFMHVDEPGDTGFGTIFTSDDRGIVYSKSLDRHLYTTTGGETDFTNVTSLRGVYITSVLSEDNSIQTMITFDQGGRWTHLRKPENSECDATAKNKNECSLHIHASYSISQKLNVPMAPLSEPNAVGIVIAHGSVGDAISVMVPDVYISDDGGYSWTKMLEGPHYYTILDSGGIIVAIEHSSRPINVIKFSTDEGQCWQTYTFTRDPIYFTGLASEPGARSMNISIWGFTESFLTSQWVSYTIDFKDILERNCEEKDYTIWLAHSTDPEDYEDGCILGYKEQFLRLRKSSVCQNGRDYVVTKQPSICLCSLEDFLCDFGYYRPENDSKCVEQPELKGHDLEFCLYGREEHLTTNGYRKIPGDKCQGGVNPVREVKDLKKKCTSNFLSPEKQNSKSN", "assay": "SPR (Biacore 8K), SORT1 on CM5 chip, siRNA-peptide conjugate as analyte, 1:1 model", "protocol": "as §1, §2, §3"}}, "note": "Bridges are numbered along the chain shown (N, C = ends). Where no end group is shown, it is not given here. Side-chain parts run from the residue outwards. [ ]: non-standard residue; d: D form. tBuAla = CC(C)(C)C[C@H](N)C(=O)O; Tle = CC(C)(C)[C@H](N)C(=O)O; linker = not defined here; Nle = CCCC[C@H](N)C(=O)O; siRNA = not defined here", "data": [{"binder": "B1", "values": [{"measurement": "Kd", "setting": "rat SORT1 (76-752)-His", "value": 253, "unit": "nM"}, {"measurement": "Kd", "setting": "Human SORT1 (78-755)-His", "value": 108, "unit": "nM"}]}]}
